Ends that are not written are not given here.
What was measured:
[1] = system: Heltog cells (HeLa cells constitutively expressing Cc-GFP); assay: Subcellular localization of Cc-GFP and ANP32A in Heltog cells after camptothecin; format: cell-based; conditions: 20 µM CPT, 1 or 4 h, confocal microscopy
Protocol: After 1 h or 4 h of CPT treatment, nuclei were stained by incubating cells with 1 µg mL^−1 Hoechst (Sigma‐Aldrich) for 10 min at 37 °C. Cells were then rinsed in pre‐warmed PBS at 37 °C to remove media traces, fixed by immersing the coverslips in a 4% formaldehyde (Sigma‐Aldrich) solution prepared in PBS for 10 min at room temperature, and then washed in pre‐warmed PBS at 37 °C. Cells were dried by incubating the coverslips in absolute ethanol for 2 min. Afterward, coverslips were mounted into glass slides using N‐propyl gallate (Sigma‐Aldrich), to preserve the fluorescence, and sealed with nail polish. Images were obtained in a Zeiss LSM 7 DUO confocal microscope using a 63× oil objective. For calcium phosphate transfection, 2.5 × 10^6 HEK293T cells were cultured in 150 mm diameter plates. After 72 h of growth, media was refreshed prior to transfection. For subcellular localization assays; 50,000 Heltog cells were grown over coverslips placed in 15.6 mm well plates for 24 h before transfection. DNA damage was then induced by replacing media for one containing 20 µM of camptothecin (CPT) and incubating cells for 1 h or 4 h. […] Afterwards, coverslips were mounted into glass slides using N-propyl gallate (Sigma-Aldrich), to preserve the fluorescence, and sealed with nail polish. […]

[2] = target: T1, cytochrome c (Homo sapiens, UniProt P99999); assay: ITC titration of full-length ANP32A or ANP32A1-167 with reduced Cc; format: binding; conditions: for Kd: relative error 20%; for n (reaction stoichiometry): error 0.03; for ΔG: error 0.1 kcal/mol
T1 construct: obtained by immunizing male rabbits with full-length recombinant Cc; made in house; host or cells: E. coli BL21 (DE3)
Protocol: Isothermal titration calorimetry (ITC) experiments were performed using a Nano ITC Low Volume instrument (TA Instruments, USA). The reference cell was filled with distilled water. Titration experiments between reduced Cc and ANP32A or ANP32A1‐167 consisted of 17 injections of 2.91 µL of a 400 µM reduced Cc solution into the sample cell containing 50 µM ANP32A construct. Both Cc and ANP32A proteins were dialyzed against 10 mM sodium phosphate buffer pH 7.4. Assays performed at moderate ionic strength used the same experimental setup, but proteins were dialyzed against 20 mM sodium phosphate pH 7.4 with 50 mM NaCl. Assays using ANP32A230‐249 or ANP32B232‐251 peptides were performed by titrating 1 mM peptide solution onto 110 or 150 µM reduced Cc solutions, respectively, or onto 100 µM HuR106‐326 solution, following the same injection configuration as described for ANP32A proteins. Cc and HuR106‐326 solutions were dialyzed against 10 mM sodium phosphate buffer pH 6.3; peptides were dissolved in the same solution. The stirring speed was set to 200 rpm for HuR106‐326 titration experiments and to 300 rpm for Cc titration experiments, to ensure cell homogeneity. ANP32A, ANP32A230‐249 and ANP32B232‐251 titration data were analyzed using Origin 7.0 (OriginLab), employing a single‐ligand binding site model or a two‐ligand binding sites model. In the last case, no binding cooperativity was observed. ANP32A1‐167 titration data was processed and analyzed using NanoAnalyze software (TA instruments).
ITC experiments were performed using a Nano ITC Low Volume instrument (TA Instruments, USA). The reference cell was filled with distilled water. Titration experiments between reduced Cc and ANP32A or ANP32A1-167 consisted of 17 injections of 2.91 µL of a 400 µM reduced Cc solution into the sample cell containing 50 µM ANP32A construct. Both Cc and ANP32A proteins were dialyzed against 10 mM sodium phosphate buffer pH 7.4. Assays performed at moderate ionic strength used the same experimental setup, but proteins were dialyzed against 20 mM sodium phosphate pH 7.4 with 50 mM NaCl. Assays using ANP32A230-249 and ANP32B232-251 peptides were performed by titrating 1 mM peptide solution onto 110 or 150 µM reduced Cc solutions, respectively, or onto 100 µM HuR106-326 solution, following the same injection configuration as described for ANP32A proteins. Cc and HuR106-326 solutions were dialyzed against 10 mM sodium phosphate buffer pH 6.3; peptides were dissolved in the same solution. The stirring speed was set to 200 rpm for HuR106-326 titration experiments and to 300 rpm for Cc titration experiments, to ensure cell homogeneity. ANP32A, ANP32A230-249 and ANP32B232-251 titration data was analyzed using Origin 7.0 (OriginLab), employing a single ligand binding site model or a two ligand binding sites model. In the last case, no binding cooperativity was observed. ANP32A1-167 titration data were processed and analyzed using NanoAnalyze software (TA instruments).

[3] = system: 15N-labeled Cc; assay: NMR titration (1H-15N HSQC) of 15N Cc with ANP32A or ANP32A1-167; format: binding; conditions: low ionic strength; 25 °C
Protocol: NMR titrations of 30 µM ^15N reduced Cc with ^14N ANP32A constructs were followed by 1D ^1H and 2D ^1H-^15N heteronuclear single quantum correlation (HSQC) spectra on a Bruker Avance-III 600 MHz equipped with a cryoprobe at 25 °C. ^15N-labelled reduced Cc (in 10 mM sodium phosphate buffer, pH 7.4) was titrated with increasing amounts of ^14N ANP32A dialyzed against the same buffer. Reduced ^15N Cc and ^14N ANP32A1-167 construct were titrated in 5 mM sodium phosphate buffer pH 6.4. To maintain the redox state of Cc and to adjust the lock signal on the NMR spectrometer, 0.1 mM of sodium ascorbate and 10% of D2O were added, respectively. Data were acquired and processed using TopSpin NMR 3.5pl7 software (Bruker).
Line broadening and chemical-shift perturbation analysis were performed using the Sparky 3 NMR assignment tool (T.D. Goddard and D.G. Kneller, University of California San Francisco, USA). Assignment of ANP32A230-249 and ANP32B232-251 peptides was performed using NMRFAM-SPARKY software distribution (National Magnetic Resonance Facility at Madison) and further imported to CCPNMR ^[1], whereby distance restraints were calculated using its built-in module.

[4] = system: recombinant Cc; assay: Cc pulldown assay with HEK293T extracts; format: binding; conditions: HEK293T extracts expressing ANP32A-c-myc, Western blot
Protocol: Pulldown assays were performed as previously described.^[ [31] ^] Briefly, transfected HEK293T cells were resuspended in a lysis buffer containing 10 mM Tricine‐NaOH pH 8.5, 1 mM PMSF, and cOmplete protease inhibitors (Roche). Afterward, cells were lysed by sonication (10 s, 10% amplitude, on ice), and the resulting debris was discarded after 15 min of centrifugation at 13300 rpm and 4 °C. More details on the procedure were given in the Supporting Information Appendix.
Pulldown assays were performed as previously described ^[6^]. Briefly, transfected HEK293T cells were resuspended in a lysis buffer containing 10 mM Tricine-NaOH pH 8.5, 1 mM PMSF and cOmplete™ protease inhibitors (Roche). Afterwards, cells were lysed by sonication (10 s, 10% amplitude, on ice), and the resulting debris was discarded after 15 min of centrifugation at 13,300 rpm and 4 °C.
Cc pulldown assays were carried out by incubating cell extracts with 100 µg of recombinant Cc for 16 h at 4 °C in batch. A carboxymethylcellulose matrix (Whatman) was added, and the mixture was incubated for 30 min at 4 °C in batch. To remove possible non-specific binding, the matrix was washed 3 times with 1 mL of washing buffer containing 10 mM Tricine-NaOH pH 8.5, 20 mM NaCl, 1 mM PMSF and cOmplete™ protease inhibitors. […]

[5] = system: histone H3; assay: Coimmunoprecipitation of c-myc-ANP32A/B with histone H3; format: binding; conditions: anti-c-myc, Western blot; representative of three experiments
Protocol: HEK293T cells were transfected with a plasmid encoding ANP32A/b-c-myc. 24 h after transfection, cells were collected for lysates preparation in buffer containing 20 mM Tris-HCl pH 7.5, 100 mM NaCl, 0.5% NP40, 0.1 mM PMSF and cOmplete™. Cells were lysed by sonication and precleared by incubation with sepharose-A beads (GE Healthcare, GE17-5280-01) for 1 h at 4 °C. The lysates were then incubated with anti-c-myc (see Pull-down assays) over night at 4 °C and subsequently with sepharose-A beads (GE Healthcare, GE17-5280-01) for 1 h at room temperature with rotation. Following 6 washes with PBS, the samples were resuspended in SDS loading buffer and analyzed by western blotting.

[6] = target: T1, cytochrome c; assay: ITC titration of ANP32A/B C-terminal peptides with reduced Cc; conditions: single binding-site model; 1 mM peptide onto 110 or 150 µM reduced Cc; 10 mM sodium phosphate pH 6.3; relative error 20%
Protocol: Isothermal titration calorimetry (ITC) experiments were performed using a Nano ITC Low Volume instrument (TA Instruments, USA). The reference cell was filled with distilled water. Titration experiments between reduced Cc and ANP32A or ANP32A1‐167 consisted of 17 injections of 2.91 µL of a 400 µM reduced Cc solution into the sample cell containing 50 µM ANP32A construct. Both Cc and ANP32A proteins were dialyzed against 10 mM sodium phosphate buffer pH 7.4. Assays performed at moderate ionic strength used the same experimental setup, but proteins were dialyzed against 20 mM sodium phosphate pH 7.4 with 50 mM NaCl. […] ANP32A, ANP32A230‐249 and ANP32B232‐251 titration data were analyzed using Origin 7.0 (OriginLab), employing a single‐ligand binding site model or a two‐ligand binding sites model. […] ANP32A1‐167 titration data was processed and analyzed using NanoAnalyze software (TA instruments).
ITC experiments were performed using a Nano ITC Low Volume instrument (TA Instruments, USA). […] ANP32A, ANP32A230-249 and ANP32B232-251 titration data was analyzed using Origin 7.0 (OriginLab), employing a single ligand binding site model or a two ligand binding sites model. […] ANP32A1-167 titration data were processed and analyzed using NanoAnalyze software (TA instruments).

[7] = low ionic strength 25 mM, first listed of two independent sites, 10 mM sodium phosphate pH 7.4
[8] = low ionic strength 25 mM, second listed of two independent sites, 10 mM sodium phosphate pH 7.4
[9] = moderate ionic strength 100 mM, single site, 20 mM sodium phosphate pH 7.4, 50 mM NaCl
[10] = moderate ionic strength 100 mM, single site, 20 mM sodium phosphate pH 7.4, 50 mM NaCl, error 0.4 kcal/mol

T1 sequence (P99999 whole entry): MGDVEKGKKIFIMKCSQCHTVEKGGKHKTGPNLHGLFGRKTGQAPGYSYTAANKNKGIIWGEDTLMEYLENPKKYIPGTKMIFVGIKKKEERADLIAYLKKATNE

**Q.** Which “Cc-GFP localization after camptothecin, in words” value [1] does the source give for `CC[C@@]1(O)C(=O)OCc2c1cc1n(c2=O)Cc2cc3ccccc3nc2-1` [camptothecin] here?
**A.** The value was “Cc‐GFP translocated into the cell nucleus”.

**Q.** Which Kd ([2]; low ionic strength 25 mM, first listed of two independent sites, 10 mM sodium phosphate pH 7.4, 400 µM reduced Cc into 50 µM ANP32A) does the source give for “ANP32A: full-length recombinant acidic leucine‐rich nuclear phosphoprotein 32 A, histone chaperone” here?
**A.** The Kd was 3.6 µM.

**Q.** And the “n (reaction stoichiometry)” value [2, 7]?
**A.** Its value is 0.65.

**Q.** And the ΔG [2, 7]?
**A.** Its ΔG is -7.4 kcal/mol.

**Q.** And the ΔH ([2]; low ionic strength 25 mM, first listed of two independent sites, 10 mM sodium phosphate pH 7.4, error 0.4 kcal/mol)?
**A.** The ΔH was 0.4 kcal/mol.

**Q.** And the Kd ([2]; low ionic strength 25 mM, second listed of two independent sites, 10 mM sodium phosphate pH 7.4, 400 µM reduced Cc into 50 µM ANP32A)?
**A.** The Kd was 34 µM.

**Q.** What about the “n (reaction stoichiometry)” value [2, 8] of the same compound?
**A.** Its value is 0.65.

**Q.** What about the ΔG [2, 8] of the same compound?
**A.** Its ΔG is -6.1 kcal/mol.

**Q.** And the “binding to Cc by ITC, in words” value ([2]; low ionic strength (25 mM))?
**A.** Its value is “two molecules of Cc bind the ANP32A LCAR at independent binding sites, with no observed cooperativity”.

**Q.** What about the “n (reaction stoichiometry)” value [2, 9] of the same compound?
**A.** The value was 0.60.

**Q.** What about the ΔG [2, 9] of the same compound?
**A.** Its ΔG is -6.1 kcal/mol.

**Q.** And the ΔH [2, 10]?
**A.** Its ΔH is 1.5 kcal/mol.

**Q.** And the “–TΔS” value [2, 10]?
**A.** The value was -7.6 kcal/mol.

**Q.** What about the Kd [2, 9] of the same compound?
**A.** Its Kd is 32 µM.

**Q.** And the “binding to Cc by ITC, in words” value ([2]; moderate ionic strength (100 mM))?
**A.** Its value is “one of the two binding sites was lost”.

**Q.** And the “chemical-shift perturbations of Cc amide signals, in words” value [3]?
**A.** Its value is “specific chemical‐shift perturbations and substantial broadening”.

**Q.** What about the “Cc pulldown result, in words” value [4] of the same compound?
**A.** Its value is “Cc interacts with ANP32A”.

**Q.** What about the “coimmunoprecipitation of histone H3, in words” value [5] of the same compound?
**A.** Its value is “H3 binds both ANP32 proteins in a similar manner”.

**Q.** How did the Kd [6] turn out when “EEERGEKRKRETEDEGEDDD [ANP32A230‐249 Q235E/P241T]” was run?
**A.** Its Kd is 190 µM.

**Q.** Which Kd [6] does the source give for “EEERGQKRKRETEDEGEDDD [ANP32A230‐249 P241T]” here?
**A.** The Kd was 190 µM.
